Results taken from patent US20120245099A1, “APOPTOSIS INDUCER” (NIHON UNIVERSITY, priority 2009, published 2012).

Experiments:
Format in all cases: cell-based
[1] = system: P5 cells (vascular endothelial cell line); assay: AP-Del-1 conditioned medium added to cells, H33342 and C3-annexin V staining (Example 5); conditions: conditioned medium of Cos cells with AP fusion protein, 24 hours after addition
Method: (§1) cDNA for full-length Del-1 (SEQ ID NO: 4) was integrated into an alkaline phosphatase (AP) expression vector (APtag4) and then introduced into cultured Cos cells. As a control, an AP expression vector free from the cDNA for full-length Del-1 was used. The resulting culture supernatant was measured for AP activity, normalized for AP fusion protein concentration and then added to a culture of CRL cells (human melanoma cells) or P5 cells (vascular endothelial cell line) (instead of using direct gene transfer, Cos cells were allowed to produce a recombinant protein and the resulting conditioned medium was used, because CRL and P5 were low in the efficiency of gene transfer). At 24 hours after addition, the cells were stained with H33342 and with C3-annexin V for observation.

[2] = system: CRL cells (human melanoma cells); assay: as above; conditions: conditioned medium of Cos cells with AP fusion protein, 24 hours after addition
Method: as §1

[3] = system: Cos cells; assay: Del-1 gene transfer into cultured Cos cells, H33342 and C3-annexin V staining (Example 3); conditions: 24 hours after gene transfer
Method: cDNA for full-length Del-1 (SEQ ID NO: 4) was integrated into an expression vector and then introduced into cultured Cos cells. At 24 hours after gene transfer, the cells were stained with H33342 and with C3-annexin V (annexin V conjugated with the fluorescent dye C3) and then observed under a fluorescent microscope.
It should be noted that annexin V is capable of binding to phosphatidylserine, a component of cell membranes, while phosphatidylserine is known to leak (to be localized) outside of the cell membrane when the cells undergo apoptosis.

[4] = system: Cos cells; assay: Del-1 gene transfer into cultured Cos cells, chromosomal DNA electrophoresis and silver staining (Example 2); conditions: Cos cells forced to express Del-1 (pcDNA3)
Excerpt: cDNA for full-length Del-1 (SEQ ID NO: 4) was integrated into an expression vector, pcDNA3 (Invitrogen), and then introduced into cultured Cos cells. As a control, pcDNA3 free from the cDNA for full-length Del-1 was used. For normalization of the gene transfer rate, DNA carrying the LacZ gene was also introduced simultaneously. The results obtained are shown in FIG. 2 (left and right panels).
Left panel: Chromosomal DNAs were taken from the cells and electrophoresed on a polyacrylamide gel, followed by silver staining.

[5] = system: Cos cells; assay: LDH activity in supernatant of Cos cells transformed with cDNA for Del-1 or its parts (Example 7); conditions: APtag4 vector, medium replaced 24 hours after gene transfer, measured after further one hour
Excerpt: cDNA for full-length Del-1 (SEQ ID NO: 4) was integrated into an AP expression vector (APtag4) and then introduced into cultured Cos cells. Likewise, cDNA for a part of Del-1 was also integrated into APtag4 and then introduced into cultured Cos cells. As a control, an AP expression vector free from the above cDNA for full-length Del-1 or a part thereof was used. It should be noted that the members each used as a part of Del-1 were EGF-like domains in the full-length Del-1 protein, i.e., EGF1 (E1; cDNA: SEQ ID NO: 26, amino acid sequence: SEQ ID NO: 27), EGF2 (E2; cDNA: SEQ ID NO: 28, amino acid sequence: SEQ ID NO: 29) and EGF3 (E3; cDNA: SEQ ID NO: 6, amino acid sequence: SEQ ID NO: 7), a fusion protein between discoidin I-like domains, i.e., Discoidin1 and Discoidin2 (C1C2; cDNA: SEQ ID NO: 30, amino acid sequence: SEQ ID NO: 31), an amino acid substitution (D136E) mutant of the above full-length Del-1 (Del1m; cDNA: SEQ ID NO: 32, amino acid sequence: SEQ ID NO: 33), as well as an amino acid substitution (D136E) mutant of E3, i.e., E3 D136E (E3m; cDNA: SEQ ID NO: 34, amino acid sequence: SEQ ID NO: 35). […] At 24 hours after gene transfer, the medium in each case was replaced with fresh culture medium and, after further one hour, the supernatant was measured for LDH activity. A cell lysate was prepared for each case and measured for LacZ activity. […]

[6] = system: Cos cells; assay: eGFP-Del-1 expression vector in cultured Cos cells, H33342 staining (Example 4); conditions: expressed as eGFP-Del-1 fusion protein, 24 hours after gene transfer
Method: An expression vector designed to carry cDNA encoding eGFP-Del-1 (a fusion protein between eGFP and full-length Del-1) was introduced into cultured Cos cells. At 24 hours after gene transfer, the cells were fixed and stained with H33342.
This would mean that Del-1 secreted from the cells receiving Del-1 gene transfer would also act on their adjacent cells to thereby induce apoptosis in these cells.

[7] = system: P5 cells (vascular endothelial cell line); assay: AP-Del-1 conditioned medium added to cells, chromosomal DNA electrophoresis and silver staining (Example 6); conditions: 24 hours after addition
Method: as §1, with “AP” for “alkaline phosphatase (AP)”, “addition, chromosomal DNAs were taken from” for “addition,”, “cells” for “cells were stained with H33342”, “electrophoresed on a polyacrylamide gel, followed by silver staining.” for “with C3-annexin V for observation.”

[8] = system: CRL cells (human melanoma cells); assay: as above; conditions: 24 hours after addition
Method: as §1, with “AP” for “alkaline phosphatase (AP)”, “addition, chromosomal DNAs were taken from” for “addition,”, “cells” for “cells were stained with H33342”, “electrophoresed on a polyacrylamide gel, followed by silver staining.” for “with C3-annexin V for observation.”

[9] = system: Cos cells; assay: Del-1 gene transfer into cultured Cos cells, H33342 nuclear staining, phase contrast and fluorescent microscopy (Example 1); conditions: 24 hours after gene transfer of cDNA in pcDNA3
Method: cDNA for full-length Del-1 (SEQ ID NO: 4) was integrated into an expression vector, pcDNA3 (Invitrogen), and then introduced into cultured Cos cells. As a control, pcDNA3 free from the cDNA for full-length Del-1 was used. At 24 hours after gene transfer, the cells were stained with H33342 (Hoechst) for cell nuclear staining and observed under a phase contrast microscope (transmission image) and a fluorescent microscope (H33342).

B1: full-length Del-1: developmentally regulated endothelial cell locus-1 protein, extracellular matrix protein, amino acid sequence SEQ ID NO: 5 (protein, listed as Mus musculus)
chain: MKHLVAAWLLVGLSLGVPQFGKGDICNPNPCENGGICLSGLADDSFSCECPEGFAGPNCSSVVEVASDEEKPTSAGPCIPNPCHNGGTCEISEAYRGDTFIGYVCKCPRGFNGIHCQHNINECEAEPCRNGGICTDLVANYSCECPGEFMGRNCQYKCSGPLGIEGGIISNQQITASSTHRALFGLRKWYPYYARLNKKGLINAWTAAENDRWPWIQINLQRKMRVTGVITQGAKRIGSPEYIKSYKIAYSNDGKTWAMYKVKGTNEEMVFRGNVDNNTPYANSFTPPIKAQYVRLYPQICRRHCTLRMELLGCELSGCSEPLGMKSGHIQDYQITASSVFRTLNMDMFTWEPRKARLDKQGKVNAWTSGHNDQSQWLQVDLLVPTKVTGIITQGAKDFGHVQFVGSYKLAYSNDGEHWMVHQDEKQRKDKVFQGNFDNDTHRKNVIDPPIYARFIRILPWSWYGRITLRSELLGCAEEE
apoptosis by H33342 and C3-annexin V staining [1]: these cells underwent apoptosis
apoptosis by H33342 and C3-annexin V staining [2]: these cells underwent apoptosis
apoptosis by H33342 and C3-annexin V staining [3]: these cells underwent apoptosis
DNA ladder pattern indicative of apoptosis [4]: ladder pattern indicative of apoptosis was observed
increase in LDH activity of supernatant, normalized by LacZ activity [5]: increase in LDH activity
apoptosis (chromosomal aggregation, H33342) in cells expressing the fusion protein [6]: found to undergo apoptosis
DNA ladder pattern indicative of apoptosis [7]: ladder pattern indicative of apoptosis was observed
DNA ladder pattern indicative of apoptosis [8]: ladder pattern indicative of apoptosis was observed
chromosome aggregation (H33342 nuclear staining) [9]: chromosomes were aggregated
